Laboratory results from US20240252628A1 (ACCELERON PHARMA, published 2024).
Where two headings read alike, the source gives them in different places.

T1: activin A (UniProt P08476 311-426)
T1 construct: The same holds for m2-m11
T1 sequence (looked up): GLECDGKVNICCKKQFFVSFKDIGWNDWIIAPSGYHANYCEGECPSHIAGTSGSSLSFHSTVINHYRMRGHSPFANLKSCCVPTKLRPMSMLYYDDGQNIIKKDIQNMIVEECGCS

T2: activin B (UniProt P09529 293-407)
T2 sequence (looked up): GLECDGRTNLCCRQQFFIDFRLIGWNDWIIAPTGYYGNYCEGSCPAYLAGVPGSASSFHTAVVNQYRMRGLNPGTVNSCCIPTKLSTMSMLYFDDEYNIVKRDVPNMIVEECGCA

T3: activin AC (UniProt P08476 311-426; P55103 237-352)
T3 sequence (looked up) 1: T1 sequence (looked up)
T3 sequence (looked up) 2: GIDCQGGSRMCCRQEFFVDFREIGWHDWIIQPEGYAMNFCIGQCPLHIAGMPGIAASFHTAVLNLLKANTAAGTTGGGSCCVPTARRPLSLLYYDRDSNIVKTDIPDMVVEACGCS

T4: activin C (UniProt P55103 237-352)
T4 sequence (looked up): T3 sequence (looked up) 2

T5: BMP6 (UniProt P22004 382-513, limits assumed)
T5 sequence (looked up): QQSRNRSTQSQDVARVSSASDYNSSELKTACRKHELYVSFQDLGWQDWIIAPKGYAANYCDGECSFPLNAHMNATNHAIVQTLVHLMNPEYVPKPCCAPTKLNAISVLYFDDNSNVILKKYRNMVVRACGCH

T6: GDF3 (UniProt Q9NR23 251-364)
T6 sequence (looked up): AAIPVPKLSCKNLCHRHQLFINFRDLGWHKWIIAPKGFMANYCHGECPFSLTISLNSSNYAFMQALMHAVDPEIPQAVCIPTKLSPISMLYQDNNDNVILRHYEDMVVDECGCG

T7: BMP5 (UniProt P22003 317-454, limits assumed)
T7 sequence (looked up): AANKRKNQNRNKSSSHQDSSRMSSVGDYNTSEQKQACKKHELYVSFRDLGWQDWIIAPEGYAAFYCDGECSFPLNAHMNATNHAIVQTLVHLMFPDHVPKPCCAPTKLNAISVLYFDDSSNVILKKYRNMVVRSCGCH

T8: GDF8 (UniProt O14793 267-375)
T8 construct: also called myostatin
T8 sequence (looked up): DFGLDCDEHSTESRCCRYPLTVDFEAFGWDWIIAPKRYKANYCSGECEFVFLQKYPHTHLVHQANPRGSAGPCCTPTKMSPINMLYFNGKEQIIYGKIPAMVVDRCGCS

T9: BMP9 (UniProt Q9UK05 320-429)
T9 construct: also called GDF2
T9 sequence (looked up): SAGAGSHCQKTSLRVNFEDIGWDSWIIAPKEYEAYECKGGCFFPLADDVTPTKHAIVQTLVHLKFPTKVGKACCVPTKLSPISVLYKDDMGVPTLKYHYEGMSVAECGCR

B1: GDF11 (ligand, UniProt O95390 299-407, looked up)
chain: NLGLDCDEHSSESRCCRYPLTVDFEAFGWDWIIAPKRYKANYCSGQCEYMFMQKYPHTHLVQQANPRGSAGPCCTPTKMSPINMLYFNDKQQIIYGKIPGMVVDRCGCS
notes: also called BMP11
B2: ALK4-Fc homodimer (Fc fusion, not shown: a dimerising Fc or GST)
chain: SGPRGVQALLCACTSCLQANYTCETDGACMVSIFNLDGMEHHVRTCIPKVELVPAGKPFYCLSSEDLRNTHCCYTDYCNRIDLRVPSGHLKEPEHPSMWGPVE
B3: ALK7-Fc homodimer (Fc fusion, not shown: a dimerising Fc or GST)
chain: LSPGLKCVCLLCDSSNFTCQTEGACWASVMLTNGKEQVIKSCVSLPELNAQVFCHSSNNVTKTECCFTDFCNNITLHLPTASPNAPKLGPME
notes: the whole extracellular entry is named
B4: ActRIIB-Fc:ALK4-Fc heterodimer (Fc fusion)
chain 1: GRGEAETRECIYYNANWELERTNQSGLERCEGEQDKRLHCYASWRNSSGTIELVKKGCWLDDFNCYDRQECVATEENPQVYFCCCEGNFCNERFTHLPEAGGPEVTYEPPPTAPTGGGTHTCPPCPAPELLGGPSVFLFPPKPKDTLMISRTPEVTCVVVDVSHEDPEVKFNWYVDGVEVHNAKTKPREEQYNSTYRVVSVLTVLHQDWLNGKEYKCKVSNKALPAPIEKTISKAKGQPREPQVYTLPPSRKEMTKNQVSLTCLVKGFYPSDIAVEWESNGQPENNYKTTPPVLKSDGSFFLYSKLTVDKSRWQQGNVFSCSVMHEALHNHYTQKSLSLSPGK
chain 2: SGPRGVQALLCACTSCLQANYTCETDGACMVSIFNLDGMEHHVRTCIPKVELVPAGKPFYCLSSEDLRNTHCCYTDYCNRIDLRVPSGHLKEPEHPSMWGPVETGGGTHTCPPCPAPELLGGPSVFLFPPKPKDTLMISRTPEVTCVVVDVSHEDPEVKFNWYVDGVEVHNAKTKPREEQYNSTYRVVSVLTVLHQDWLNGKEYKCKVSNKALPAPIEKTISKAKGQPREPQVYTLPPSREEMTKNQVSLTCLVKGFYPSDIAVEWESNGQPENNYDTTPPVLDSDGSFFLYSDLTVDKSRWQQGNVFSCSVMHEALHNHYTQKSLSLSPG
notes: the receptor domains are the same in all; also called ALK4-Fc:ActRIIB-Fc heterodimer; ActRIIB-Fc:ALK4-Fc heterodimeric complex
B5: ActRIIB-Fc:ALK7-Fc heterodimer (Fc fusion)
chain 1: B4 chain 1
chain 2: GLKCVCLLCDSSNFTCQTEGACWASVMLTNGKEQVIKSCVSLPELNAQVFCHSSNNVTKTECCFTDFCNNITLHLPTASPNAPKLGPMETGGGTHTCPPCPAPELLGGPSVFLFPPKPKDTLMISRTPEVTCVVVDVSHEDPEVKFNWYVDGVEVHNAKTKPREEQYNSTYRVVSVLTVLHQDWLNGKEYKCKVSNKALPAPIEKTISKAKGQPREPQVYTLPPSREEMTKNQVSLTCLVKGFYPSDIAVEWESNGQPENNYDTTPPVLDSDGSFFLYSDLTVDKSRWQQGNVFSCSVMHEALHNHYTQKSLSLSPG
notes: also called ActRIIB-Fc:ALK7 heterodimer; ActRIIB-Fc:ALK7-Fc heterodimeric complex
B6: BMP10 (ligand, UniProt O95393 317-424, looked up)
chain: NAKGNYCKRTPLYIDFKEIGWDSWIIAPPGYEAYECRGVCNYPLAEHLTPTKHAIIQALVHLKNSQKASKACCVPTKLEPISILYLDKGVVTYKFKYEGMAVSECGCR

Experiments:
ActRIIA-mFc [1] = molecular target: T10, ActRIIA-mFc (human, UniProt P27037 21-135); assay: SPR (Biacore), ligand amine-coupled on CM5 chip
T10 construct: not shown: minimal linker and mouse Fc domain
Procedure: (§1) GDF11 or activin A were immobilized on a Biacore™ CM5 chip using standard amine-coupling procedure. ActRIIA-hFc and ActRIIA-mFc proteins were loaded onto the system, and binding was measured. […] See FIG. 15A-B. Using a similar binding assay, ActRIIA-hFc was determined to have high to moderate affinity for other TGF-beta superfamily ligands including, for example, activin B, GDF8, BMP6, and BMP10. ActRIIA-mFc behaved similarly.

activin A [2] = molecular target: T1, activin A; assay: SPR (Biacore), anti-Fc capture of receptor
Procedure: (§2) A Biacore™-based binding assay was used to compare ligand binding selectivity of the ActRIIB-Fc:ALK4-Fc heterodimeric complex described above with that of ActRIIB-Fc and ALK4-Fc homodimer complexes. The ActRIIB-Fc:ALK4-Fc heterodimer, ActRIIB-Fc homodimer, and ALK4-Fc homodimer were independently captured onto the system using an anti-Fc antibody. Ligands were injected and allowed to flow over the captured receptor protein. Results are summarized in the table below, in which ligand off-rates (kd) most indicative of effective ligand traps are denoted in bold.

activin B [3] = molecular target: T2, activin B; assay: SPR (Biacore), anti-Fc capture of receptor
Procedure: as §2

activin AC = molecular target: T3, activin AC; assay: SPR (Biacore), anti-Fc capture of receptor
Procedure: (§3) A Biacore™-based binding assay was used to compare ligand binding selectivity of the ActRIIB-Fc:ALK7-Fc heterodimeric complex described above with that of ActRIIB-Fc and ALK7-Fc homodimeric complexes. The ActRIIB-Fc:ALK7-Fc heterodimer, ActRIIB-Fc homodimer, and ALK7-Fc homodimer were independently captured onto the system using an anti-Fc antibody. Ligands were injected and allowed to flow over the captured receptor protein. Results are summarized in the table below, in which ligand off-rates (kd) most indicative of effective ligand traps are denoted by in bold.

activin C = molecular target: T4, activin C; assay: SPR (Biacore), anti-Fc capture of receptor
Procedure: as §3

BMP6 [4] = molecular target: T5, BMP6; assay: SPR (Biacore), anti-Fc capture of receptor
Procedure: as §3

GDF3 [5] = molecular target: T6, GDF3; assay: SPR (Biacore), anti-Fc capture of receptor
Procedure: as §3

BMP10 [6] = molecular target: B6; assay: SPR (Biacore), anti-Fc capture of receptor
Procedure: as §3

GDF11 [7] = molecular target: B1; assay: SPR (Biacore), anti-Fc capture of receptor
Procedure: as §3

BMP5 = molecular target: T7, BMP5; assay: SPR (Biacore), anti-Fc capture of receptor
Procedure: as §3

GDF8 [8] = molecular target: T8, GDF8; assay: SPR (Biacore), anti-Fc capture of receptor
Procedure: as §3

BMP9 [9] = molecular target: T9, BMP9; assay: SPR (Biacore), anti-Fc capture of receptor
Procedure: as §3

activin A [10] = molecular target: T1, activin A; assay: SPR (Biacore), anti-Fc capture of receptor; remark: listed apart in the source
Procedure: as §3

activin B [11] = molecular target: T2, activin B; assay: SPR (Biacore), anti-Fc capture of receptor; remark: listed apart in the source
Procedure: as §3

BMP6 [12] = molecular target: T5, BMP6; assay: SPR (Biacore), anti-Fc capture of receptor; remark: listed apart in the source
Procedure: as §2

GDF3 [13] = molecular target: T6, GDF3; assay: SPR (Biacore), anti-Fc capture of receptor; remark: listed apart in the source
Procedure: as §2

BMP10 [14] = molecular target: B6; assay: SPR (Biacore), anti-Fc capture of receptor; remark: listed apart in the source
Procedure: as §2

GDF11 [15] = molecular target: B1; assay: SPR (Biacore), anti-Fc capture of receptor; remark: listed apart in the source
Procedure: as §2

GDF8 [16] = molecular target: T8, GDF8; assay: SPR (Biacore), anti-Fc capture of receptor; remark: listed apart in the source
Procedure: as §2

BMP9 [17] = molecular target: T9, BMP9; assay: SPR (Biacore), anti-Fc capture of receptor; remark: listed apart in the source
Procedure: as §2

ActRIIA-mFc [18] = molecular target: T10, ActRIIA-mFc; assay: similar binding assay (SPR)
Procedure: as §1

T10 sequence (P27037 21-135): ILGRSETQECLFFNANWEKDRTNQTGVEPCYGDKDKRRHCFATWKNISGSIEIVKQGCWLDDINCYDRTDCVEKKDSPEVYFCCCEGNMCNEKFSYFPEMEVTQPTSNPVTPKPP

Binder: B1
- binding result (ActRIIA-mFc [1]): binds

Binder: B2
- Kd (activin A [2]): 20000 pM
- koff (activin A [2]): 0.012 s⁻¹
- kon (activin A [2]): 580000 M⁻¹ s⁻¹
- binding result (activin B [3]): no binding

Binder: B3
- binding result (activin AC): no binding
- binding result (activin C): no binding
- binding result (BMP6 [4]): no binding
- binding result (GDF3 [5]): no binding
- binding result (BMP10 [6]): no binding
- binding result (GDF11 [7]): no binding
- binding result (BMP5): no binding
- binding result (GDF8 [8]): no binding
- binding result (BMP9 [9]): no binding
- binding result (activin A [10]): no binding
- binding result (activin B [11]): no binding

Binder: B4
- Kd (BMP6 [12]): 2700 pM
- koff (BMP6 [12]): 0.0055 s⁻¹
- kon (BMP6 [12]): 2e+06 M⁻¹ s⁻¹
- Kd (GDF3 [13]): 4900 pM
- koff (GDF3 [13]): 0.017 s⁻¹
- kon (GDF3 [13]): 3.4e+06 M⁻¹ s⁻¹
- Kd (BMP10 [14]): 74 pM
- koff (BMP10 [14]): 0.0041 s⁻¹
- kon (BMP10 [14]): 5.6e+07 M⁻¹ s⁻¹
- Kd (GDF11 [15]): 3 pM
- koff (GDF11 [15]): 0.00011 s⁻¹
- kon (GDF11 [15]): 3.8e+07 M⁻¹ s⁻¹
- Kd (GDF8 [16]): 550 pM
- koff (GDF8 [16]): 0.00021 s⁻¹
- kon (GDF8 [16]): 390000 M⁻¹ s⁻¹
- Kd (BMP9 [17]): 3400 pM
- Kd (activin A [2]): 12 pM
- koff (activin A [2]): 0.00015 s⁻¹
- kon (activin A [2]): 1.3e+07 M⁻¹ s⁻¹
- Kd (activin B [3]): 6 pM
- koff (activin B [3]): 4e-05 s⁻¹
- kon (activin B [3]): 7.1e+06 M⁻¹ s⁻¹

Binder: B5
- Kd (activin AC): 220 pM
- koff (activin AC): 0.00057 s⁻¹
- kon (activin AC): 2.6e+06 M⁻¹ s⁻¹
- Kd (activin C): 6900 pM
- koff (activin C): 0.0024 s⁻¹
- kon (activin C): 350000 M⁻¹ s⁻¹
- Kd (BMP6 [4]): 5300 pM
- koff (BMP6 [4]): 0.0063 s⁻¹
- kon (BMP6 [4]): 1.2e+06 M⁻¹ s⁻¹
- Kd (GDF3 [5]): 4500 pM
- koff (GDF3 [5]): 0.01 s⁻¹
- kon (GDF3 [5]): 2.3e+06 M⁻¹ s⁻¹
- Kd (BMP10 [6]): 190 pM
- koff (BMP10 [6]): 0.0028 s⁻¹
- kon (BMP10 [6]): 1.5e+07 M⁻¹ s⁻¹
- Kd (GDF11 [7]): 8 pM
- koff (GDF11 [7]): 0.00075 s⁻¹
- kon (GDF11 [7]): 9.5e+07 M⁻¹ s⁻¹
- Kd (BMP5): 57000 pM
- koff (BMP5): 0.0085 s⁻¹
- kon (BMP5): 150000 M⁻¹ s⁻¹
- Kd (GDF8 [8]): 270 pM
- koff (GDF8 [8]): 0.001 s⁻¹
- kon (GDF8 [8]): 3.7e+06 M⁻¹ s⁻¹
- Kd (BMP9 [9]): > 1400 pM
- Kd (activin A [10]): 43 pM
- koff (activin A [10]): 0.0019 s⁻¹
- kon (activin A [10]): 4.4e+07 M⁻¹ s⁻¹
- Kd (activin B [11]): 17 pM
- koff (activin B [11]): 0.0002 s⁻¹
- kon (activin B [11]): 1.2e+07 M⁻¹ s⁻¹

Binder: B6
- binding result (ActRIIA-mFc [18]): binds
